# Assay results taken from FireProtDB (doi:10.1002/prot.20212).
# “And” between values parts separate entries of the source, which are not always exact repeats. Identical values can stand only once.
# B1: Alpha-lactalbumin wild type, P00712 (protein)
# chain: MMSFVSLLLVGILFHATQAEQLTKCEVFQKLKDLKDYGGVSLPEWVCTAFHTSGYDTQAIVQNNDSTEYGLFQINNKIWCKDDQNPHSRNICNISCDKFLDDDLTDDIVCAKKILDKVGINYWLAHKALCSEKLDQWLCEKL
# Details: Capra hircus, 25 °C, GdnHCl, CD, Tris 20 mM, Na+ 80 mM, whole UniProt chain shown
protein,measurement,setting,value
B1,denaturant m value,"pH 4.5, transition: 3",1.34 kcal/mol/M and 1.19 kcal/mol/M
same,unfolding free energy,"pH 4.5, transition: 3",3.39 kcal/mol and 3.38 kcal/mol
same,denaturant m value,pH 4.5,2.53 kcal/mol/M
same,unfolding free energy,pH 4.5,6.79 kcal/mol
same,denaturant m value,pH 5.5,2.75 kcal/mol/M
same,unfolding free energy,pH 5.5,8.8 kcal/mol
same,denaturant m value,pH 7.5,3 kcal/mol/M
same,unfolding free energy,pH 7.5,10.2 kcal/mol
